The source of these data is patent US20240016952A1 (published 2024).

Substitutions are numbered along the chain they refer to. Numbers in names are those of the source.

As usually defined, the Kd is the constant that tells how readily two partners part at equilibrium.

B1: 3-M12 mouse monoclonal anti-TfR1 antibody (antibody, V domains shown)
VH: DVQLQESGPGLVKPSQSLSLTCSVTGYSITSGYYWNWIRQFPGNKLEWMGYITFDGANNYNPSLKNRISITRDTSKNQFFLKLTSVTTEDTATYYCTRSSYDYDVLDYWGQGTTLTVSS
VL: DIQMTQTTSSLSASLGDRVTISCRASQDISNFLNWYQQRPDGTVKLLIYYTSRLHSGVPSRFSGSGSGTDFSLTVSNLEQEDIATYFCQQGHTLPYTFGGGTKLEIK
notes: Mouse mAb (IgG)
B2: 3-A4 mouse monoclonal anti-TfR1 antibody (antibody, V domains shown)
VH: EVQLQQSGAELVRPGASVKLSCTASGFNIKDDYMYWVKQRPEQGLEWIGWIDPENGDTEYASKFQDKATVTADTSSNTAYLQLSSLTSEDTAVYYCTLWLRRGLDYWGQGTSVTVSS
VL: DIVMTQAAPSVPVTPGESVSISCRSSKSLLHSNGYTYLFWFLQRPGQSPQLLIYRMSNLASGVPDRFSGSGSGTAFTLRISRVEAEDVGVYYCMQHLEYPFTFGGGTKLEIK
notes: Mouse mAb (IgG); also called 3-A04
B3: humanized anti-TfR Fab 5H12 VH5 (C33D)/Vk4 conjugated to DMPK-targeting oligonucleotide ASO300 (Fab, V domains shown)
VH: QVQLVQSGAEVKKPGASVKVSCKASGYSFTDYDINWVRQAPGQGLEWMGWIYPGSGNTRYSERFKGRVTITRDTSASTAYMELSSLRSEDTAVYYCAREDYYPYHGMDYWGQGTLVTVSS
VL: DIVMTQSPDSLAVSLGERATINCRASESVDGYDNSFMHWYQQKPGQPPKLLIFRASNLESGVPDRFSGSGSGTDFTLTISSLQAEDVAVYYCQQSSEDPWTFGQGTKLEIKR
modifications: Fab conjugated to oligonucleotide ASO300; chain and residue not stated
notes: Fab-oligonucleotide conjugate; The protein chains are those of the unconjugated Fab
B4: humanized anti-TfR Fab 5H12 VH5 (C33Y)/Vk4 conjugated to DMPK-targeting oligonucleotide ASO300 (Fab, V domains shown)
VH: B3 VH with D33Y
VL: B3 VL
modifications: Fab conjugated to oligonucleotide ASO300; chain and residue not stated
notes: Fab-oligonucleotide conjugate; also called 5H12 (VH4-C33Y/Vk4) conjugate
B5: humanized anti-TfR Fab 3A4 VH3 (N54S)/Vk4 conjugated to DMPK-targeting oligonucleotide ASO300 (Fab, V domains shown)
VH: EVQLVQSGSELKKPGASVKVSCTASGFNIKDDYMYWVRQPPGKGLEWIGWIDPESGDTEYASKFQDRVTVTADTSTNTAYMELSSLRSEDTAVYYCTLWLRRGLDYWGQGTLVTVSS
VL: DIVMTQSPLSLPVTPGEPASISCRSSKSLLHSNGYTYLFWFQQRPGQSPRLLIYRMSNLASGVPDRFSGSGSGTDFTLKISRVEAEDVGVYYCMQHLEYPFTFGGGTKVEIKR
modifications: Fab conjugated to oligonucleotide ASO300; chain and residue not stated
notes: as for B3
B6: humanized anti-TfR Fab 3A4 VH3 (N54T)/Vk4 conjugated to DMPK-targeting oligonucleotide ASO300 (Fab, V domains shown)
VH: B5 VH with S55T
VL: B5 VL
modifications: Fab conjugated to oligonucleotide ASO300; chain and residue not stated
notes: as for B3
B7: humanized anti-TfR Fab 3A4 VH3/Vk4 conjugated to DMPK-targeting oligonucleotide ASO300 (Fab, V domains shown)
VH: B5 VH with S55N
VL: B5 VL
modifications: Fab conjugated to oligonucleotide ASO300; chain and residue not stated
notes: as for B3
B8: humanized anti-TfR Fab 3M12 VH3/Vk2 conjugated to DMPK-targeting oligonucleotide ASO300 (Fab, V domains shown)
VH: QVQLQESGPGLVKPSQTLSLTCSVTGYSITSGYYWNWIRQPPGKGLEWMGYITFDGANNYNPSLKNRVSISRDTSKNQFSLKLSSVTAEDTATYYCTRSSYDYDVLDYWGQGTTVTVSS
VL: DIQMTQSPSSLSASVGDRVTITCRASQDISNFLNWYQQKPGQPVKLLIYYTSRLHSGVPSRFSGSGSGTDFTLTISSLQPEDFATYFCQQGHTLPYTFGQGTKLEIKR
modifications: Fab conjugated to oligonucleotide ASO300; chain and residue not stated
notes: as for B3

The first experiment has as its target T1, cynomolgus monkey transferrin receptor 1 (cTfR1) (cynomolgus monkey (Macaca fascicularis), UniProt Q5RDH6 89-760 (Pongo abelii entry), limits assumed).
T1 construct: Recombinant cynomolgus TfR1; also called cyTfR1; cyno TfR1
T1 chain: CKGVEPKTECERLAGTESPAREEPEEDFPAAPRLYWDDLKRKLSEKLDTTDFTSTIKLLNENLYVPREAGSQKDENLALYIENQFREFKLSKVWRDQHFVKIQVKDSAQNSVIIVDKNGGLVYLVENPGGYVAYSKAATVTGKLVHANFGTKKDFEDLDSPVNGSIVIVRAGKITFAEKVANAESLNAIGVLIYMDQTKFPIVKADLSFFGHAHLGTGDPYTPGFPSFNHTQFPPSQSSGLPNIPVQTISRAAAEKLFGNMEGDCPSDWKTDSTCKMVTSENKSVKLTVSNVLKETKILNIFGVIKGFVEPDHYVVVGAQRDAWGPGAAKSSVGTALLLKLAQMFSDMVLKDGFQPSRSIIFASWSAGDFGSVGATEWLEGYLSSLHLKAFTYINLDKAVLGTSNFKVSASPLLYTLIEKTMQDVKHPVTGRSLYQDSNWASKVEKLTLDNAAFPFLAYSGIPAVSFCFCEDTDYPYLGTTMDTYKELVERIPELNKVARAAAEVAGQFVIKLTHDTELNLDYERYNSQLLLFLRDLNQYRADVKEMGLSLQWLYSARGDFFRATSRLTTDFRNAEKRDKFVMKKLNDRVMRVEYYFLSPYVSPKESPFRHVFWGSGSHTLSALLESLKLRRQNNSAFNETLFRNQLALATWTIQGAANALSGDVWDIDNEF
Description: average KD, antibody alone; method not given.
B1: binding was characterised by a dissociation constant (Kd) of 5.18 nM.

In turn, B2 showed a Kd of 2.32 nM.

The next experiment has as its target T1, cynomolgus monkey transferrin receptor …. Description: ELISA on plate-coated cyno TfR1, Fab-ASO300 conjugate. Background: In an ELISA, binding on a coated surface is turned into a signal by an enzyme label.
With B3, the “Conjugate binding affinity ELISA” value came out at 10.2 nM.

As to B4, the “Conjugate binding affinity ELISA” value worked out at 3.3 nM.

Consider B5, for which the “Conjugate binding affinity ELISA” value worked out at 7.8 nM.

As to B6, the “Conjugate binding affinity ELISA” value is 4.7 nM.

With B7, the “Conjugate binding affinity ELISA” value amounted to 7.6 nM.

Turning to B8, the “Conjugate binding affinity ELISA” value is 2.9 nM.

For a further experiment the target is unchanged. Description: ELISA, cyno TfR1, Fab-ASO300 conjugate.
B3: the “DMPK oligo conjugate binding to cyno TfR1” value (from here on “DMPK oligo conjugate binding”) was 10.2 nM.

On to B4, for which the “DMPK oligo conjugate binding” value turned out to be 13.9 nM.

B5: the “DMPK oligo conjugate binding” value turned out to be 4.1 nM.

Regarding B6, the “DMPK oligo conjugate binding” value turned out to be 5.12 nM.

For B7, the “DMPK oligo conjugate binding” value is 7.59 nM.

In the case of B8, the “DMPK oligo conjugate binding” value stood at 2.26 nM.

For another experiment, the target named is T2, human transferrin receptor 1 (hTfR1) (human, UniProt P02786 89-760).
T2 construct: Recombinant human TfR1; also called huTfR1; Human TfR1
T2 sequence (P02786 89-760 limits assumed): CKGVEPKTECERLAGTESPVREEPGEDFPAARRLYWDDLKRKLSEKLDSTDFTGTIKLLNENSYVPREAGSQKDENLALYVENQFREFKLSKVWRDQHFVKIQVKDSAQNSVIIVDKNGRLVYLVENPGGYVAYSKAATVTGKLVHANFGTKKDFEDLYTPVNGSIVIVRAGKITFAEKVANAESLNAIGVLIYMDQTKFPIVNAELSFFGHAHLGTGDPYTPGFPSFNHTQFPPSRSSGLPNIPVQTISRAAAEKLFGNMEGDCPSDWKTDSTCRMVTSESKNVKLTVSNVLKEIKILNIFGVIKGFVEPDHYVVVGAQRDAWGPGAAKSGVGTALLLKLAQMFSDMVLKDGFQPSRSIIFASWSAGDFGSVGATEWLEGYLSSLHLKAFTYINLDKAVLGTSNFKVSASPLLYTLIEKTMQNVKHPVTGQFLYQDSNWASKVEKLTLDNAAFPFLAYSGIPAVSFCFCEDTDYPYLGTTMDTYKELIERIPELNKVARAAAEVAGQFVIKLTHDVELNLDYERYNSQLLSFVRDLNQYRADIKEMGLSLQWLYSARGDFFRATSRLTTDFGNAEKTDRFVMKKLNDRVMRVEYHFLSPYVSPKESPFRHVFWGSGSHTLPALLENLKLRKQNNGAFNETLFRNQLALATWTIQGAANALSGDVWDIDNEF
Description: ELISA on plate-coated human TfR1, Fab-ASO300 conjugate.
Turning to B3, the “Conjugate binding affinity ELISA” value was found to be 110 nM.

In the case of B4, the “Conjugate binding affinity ELISA” value was determined as 23.7 nM.

As for B5, the “Conjugate binding affinity ELISA” value was 2.9 nM.

Regarding B6, the “Conjugate binding affinity ELISA” value stood at 2.8 nM.

B7: the “Conjugate binding affinity ELISA” value was 2.8 nM.

For the molecule B8, the “Conjugate binding affinity ELISA” value stood at 2.2 nM.
